From patent US20240124553A1

Tests used:
Test in all cases: flow cytometry, transfected 293T cells
[1] = target: CHIKV E2-E1 envelope glycoproteins (strain S27), E2 mutant S61A (chikungunya virus strain S27) (UniProt Q8JUX5)
[2] = target: CHIKV E2-E1 envelope glycoproteins (strain S27), E2 mutant S118A (chikungunya virus strain S27) (UniProt Q8JUX5)
[3] = target: CHIKV E2-E1 envelope glycoproteins (strain S27), E2 mutant T112A (chikungunya virus strain S27) (UniProt Q8JUX5)
[4] = target: CHIKV E2-E1 envelope glycoproteins (strain S27), E2 mutant I37A (chikungunya virus strain S27) (UniProt Q8JUX5)
[5] = target: CHIKV E2-E1 envelope glycoproteins (strain S27), E2 mutant R104A (chikungunya virus strain S27) (UniProt Q8JUX5)
[6] = target: CHIKV E2-E1 envelope glycoproteins (strain S27), E2 mutant P90A (chikungunya virus strain S27) (UniProt Q8JUX5)
[7] = target: CHIKV E2-E1 envelope glycoproteins (strain S27), E2 mutant S51A (chikungunya virus strain S27) (UniProt Q8JUX5)
[8] = target: CHIKV E2-E1 envelope glycoproteins (strain S27), E2 mutant L46A (chikungunya virus strain S27) (UniProt Q8JUX5)
[9] = target: CHIKV E2-E1 envelope glycoproteins (strain S27), E2 mutant I74A (chikungunya virus strain S27) (UniProt Q8JUX5)
[10] = target: CHIKV E2-E1 envelope glycoproteins (strain S27), E2 mutant E109A (chikungunya virus strain S27) (UniProt Q8JUX5)
[11] = target: CHIKV E2-E1 envelope glycoproteins (strain S27), E2 mutant L34A (chikungunya virus strain S27) (UniProt Q8JUX5)
[12] = target: CHIKV E2-E1 envelope glycoproteins (strain S27), E2 mutant A41S (chikungunya virus strain S27) (UniProt Q8JUX5)
[13] = target: CHIKV E2-E1 envelope glycoproteins (strain S27), E2 mutant H123A (chikungunya virus strain S27) (UniProt Q8JUX5)
[14] = target: CHIKV E2-E1 envelope glycoproteins (strain S27), E2 mutant V32A (chikungunya virus strain S27) (UniProt Q8JUX5)
[15] = target: CHIKV E2-E1 envelope glycoproteins (strain S27), E2 mutant R80A (chikungunya virus strain S27) (UniProt Q8JUX5)
[16] = target: CHIKV E2-E1 envelope glycoproteins (strain S27), E2 mutant R36A (chikungunya virus strain S27) (UniProt Q8JUX5)
[17] = target: CHIKV E2-E1 envelope glycoproteins (strain S27), E2 mutant D71A (chikungunya virus strain S27) (UniProt Q8JUX5)
[18] = target: CHIKV E2-E1 envelope glycoproteins (strain S27), E2 mutant A78S (chikungunya virus strain S27) (UniProt Q8JUX5)
[19] = target: CHIKV E2-E1 envelope glycoproteins (strain S27), E2 mutant D60A (chikungunya virus strain S27) (UniProt Q8JUX5)
[20] = target: CHIKV E2-E1 envelope glycoproteins (strain S27), E2 mutant H131A (chikungunya virus strain S27) (UniProt Q8JUX5)
[21] = target: CHIKV E2-E1 envelope glycoproteins (strain S27), E2 mutant D77A (chikungunya virus strain S27) (UniProt Q8JUX5)
[22] = target: CHIKV E2-E1 envelope glycoproteins (strain S27), E2 mutant P128A (chikungunya virus strain S27) (UniProt Q8JUX5)
[23] = target: CHIKV E2-E1 envelope glycoproteins (strain S27), E2 mutant R119A (chikungunya virus strain S27) (UniProt Q8JUX5)
[24] = target: CHIKV E2-E1 envelope glycoproteins (strain S27), E2 mutant F129A (chikungunya virus strain S27) (UniProt Q8JUX5)
[25] = target: CHIKV E2-E1 envelope glycoproteins (strain S27), E2 mutant A33S (chikungunya virus strain S27) (UniProt Q8JUX5)
[26] = target: CHIKV E2-E1 envelope glycoproteins (strain S27), E2 mutant F84A (chikungunya virus strain S27) (UniProt Q8JUX5)
[27] = target: CHIKV E2-E1 envelope glycoproteins (strain S27), E2 mutant V85A (chikungunya virus strain S27) (UniProt Q8JUX5)
[28] = target: CHIKV E2-E1 envelope glycoproteins (strain S27), E2 mutant F100A (chikungunya virus strain S27) (UniProt Q8JUX5)
[29] = target: CHIKV E2-E1 envelope glycoproteins (strain S27), E2 mutant T110A (chikungunya virus strain S27) (UniProt Q8JUX5)
[30] = target: CHIKV E2-E1 envelope glycoproteins (strain S27), E2 mutant G44A (chikungunya virus strain S27) (UniProt Q8JUX5)
[31] = target: CHIKV E2-E1 envelope glycoproteins (strain S27), E2 mutant R86A (chikungunya virus strain S27) (UniProt Q8JUX5)
[32] = target: CHIKV E2-E1 envelope glycoproteins (strain S27), E2 mutant H62A (chikungunya virus strain S27) (UniProt Q8JUX5)
[33] = target: CHIKV E2-E1 envelope glycoproteins (strain S27), E2 mutant I48A (chikungunya virus strain S27) (UniProt Q8JUX5)

| Substance | Binding Reactivity (% WT) [1] [% WT] | Binding Reactivity (% WT) [2] [% WT] | Binding Reactivity (% WT) [3] [% WT] | Binding Reactivity (% WT) [4] [% WT] | Binding Reactivity (% WT) [6] [% WT] | Binding Reactivity (% WT) [7] [% WT] | Binding Reactivity (% WT) [8] [% WT] | Binding Reactivity (% WT) [9] [% WT] | Binding Reactivity (% WT) [10] [% WT] | Binding Reactivity (% WT) [11] [% WT] | Binding Reactivity (% WT) [12] [% WT] | Binding Reactivity (% WT) [13] [% WT] | Binding Reactivity (% WT) [14] [% WT] | Binding Reactivity (% WT) [15] [% WT] | Binding Reactivity (% WT) [17] [% WT] | Binding Reactivity (% WT) [18] [% WT] | Binding Reactivity (% WT) [19] [% WT] | Binding Reactivity (% WT) [20] [% WT] | Binding Reactivity (% WT) [21] [% WT] | Binding Reactivity (% WT) [22] [% WT] | also measured |
| --- | --- | --- | --- | --- | --- | --- | --- | --- | --- | --- | --- | --- | --- | --- | --- | --- | --- | --- | --- | --- | --- |
| CHIKV mAb IM-CKV065 (antibody) | 112 | 86 | 16.2 | 12.1 | 108 | 85.6 | -2.7 | 0.3 | 82.6 | 16.3 | 33.8 | 30.8 | 33.3 | 125 | 102 | 107 | 114 | 3.2 | 61.2 | 80.3 | Binding Reactivity (% WT) [5]: 66.9 % WT; Binding Reactivity (% WT) [16]: 119 % WT; Binding Reactivity (% WT) [23]: 120 % WT; Binding Reactivity (% WT) [24]: -1.1 % WT; Binding Reactivity (% WT) [25]: 123 % WT; Binding Reactivity (% WT) [26]: 51.6 % WT; Binding Reactivity (% WT) [27]: 88.1 % WT; Binding Reactivity (% WT) [28]: 15.1 % WT; Binding Reactivity (% WT) [29]: 72.1 % WT; Binding Reactivity (% WT) [30]: 50.4 % WT; Binding Reactivity (% WT) [31]: 102 % WT; Binding Reactivity (% WT) [32]: 88.5 % WT; Binding Reactivity (% WT) [33]: 0.3 % WT |
| Mxra8-Fc (mouse Mxra8 extracellular domain fused to mouse IgG2b Fc) (Fc fusion) | 116 | 89.6 | 44.2 | 36.2 | 114 | 99.2 | 4.8 | 44.8 | 97.4 | 28.3 | 4.9 | 33.6 | 47.1 | 131 | -0.3 | 106 | 102 | 15.7 | 83.7 | 122 | Binding Reactivity (% WT) [23]: 0 % WT; Binding Reactivity (% WT) [24]: 4.1 % WT; Binding Reactivity (% WT) [25]: 85.3 % WT; Binding Reactivity (% WT) [26]: 77.6 % WT; Binding Reactivity (% WT) [27]: 84.6 % WT; Binding Reactivity (% WT) [28]: 26.2 % WT; Binding Reactivity (% WT) [29]: 99.6 % WT; Binding Reactivity (% WT) [30]: 72.2 % WT; Binding Reactivity (% WT) [31]: 91.5 % WT; Binding Reactivity (% WT) [32]: 102 % WT; Binding Reactivity (% WT) [33]: 11.1 % WT |
| CHIKV mAb C9 (antibody) | 93.1 | 97.4 | 50.5 | 30.4 | 100 | 85.3 | 1.7 | 108 | 109 | 34.4 | 70.7 | 53.6 | 44 | 68.8 | 91.8 | 84.1 | 74 | 24.4 | 93.3 | 112 | Binding Reactivity (% WT) [5]: 91.6 % WT; Binding Reactivity (% WT) [16]: 75.4 % WT; Binding Reactivity (% WT) [23]: 88 % WT; Binding Reactivity (% WT) [24]: 6.7 % WT; Binding Reactivity (% WT) [25]: 86 % WT; Binding Reactivity (% WT) [26]: 76.2 % WT; Binding Reactivity (% WT) [27]: 77.8 % WT; Binding Reactivity (% WT) [28]: 34.2 % WT; Binding Reactivity (% WT) [29]: 88 % WT; Binding Reactivity (% WT) [30]: 72.5 % WT; Binding Reactivity (% WT) [31]: 121 % WT; Binding Reactivity (% WT) [32]: 93.1 % WT; Binding Reactivity (% WT) [33]: 10.7 % WT |
| CHIKV mAb IM-CKV063 (antibody) | 100 | 93.1 | 43.1 | 26 | 95.3 | 89.8 | 2.7 | 106 | 76.6 | 29.4 | 51.1 | 44.2 | 44.1 | 86.3 | 98.9 | 99.1 | 64.8 | 16.5 | 92.2 | 86 | Binding Reactivity (% WT) [5]: 75.7 % WT; Binding Reactivity (% WT) [16]: 76.5 % WT; Binding Reactivity (% WT) [23]: 72 % WT; Binding Reactivity (% WT) [24]: 3.9 % WT; Binding Reactivity (% WT) [25]: 99.4 % WT; Binding Reactivity (% WT) [26]: 61.7 % WT; Binding Reactivity (% WT) [27]: 74.5 % WT; Binding Reactivity (% WT) [28]: 33.6 % WT; Binding Reactivity (% WT) [29]: 88.1 % WT; Binding Reactivity (% WT) [30]: 68.2 % WT; Binding Reactivity (% WT) [31]: 127 % WT; Binding Reactivity (% WT) [32]: 79.6 % WT; Binding Reactivity (% WT) [33]: 7.9 % WT |
| CHIKV mAb CHKV-88 (antibody) | 105 | 117 | 71.6 | 63.2 | 119 | 96.9 | 23.6 | 106 | 124 | 58.3 | 89.8 | 61.5 | 84.8 | 128 | 108 | 126 | 56.5 | 56.3 | 94.7 | 102 | Binding Reactivity (% WT) [5]: 76 % WT; Binding Reactivity (% WT) [16]: 83.8 % WT; Binding Reactivity (% WT) [23]: 99.5 % WT; Binding Reactivity (% WT) [24]: 25.1 % WT; Binding Reactivity (% WT) [25]: 123 % WT; Binding Reactivity (% WT) [26]: 83.9 % WT; Binding Reactivity (% WT) [27]: 75.9 % WT; Binding Reactivity (% WT) [28]: 69.1 % WT; Binding Reactivity (% WT) [29]: 107 % WT; Binding Reactivity (% WT) [30]: 98.1 % WT; Binding Reactivity (% WT) [31]: 110 % WT; Binding Reactivity (% WT) [32]: 101 % WT; Binding Reactivity (% WT) [33]: 39.6 % WT |
